In US20160222105A1 (MacroGenics, published 2016):

T1: human gpA33 (human, UniProt Q99795 22-235, limits assumed)
T1 construct: There it is printed only as gpA33; also called A33 antigen
T1 sequence (looked up): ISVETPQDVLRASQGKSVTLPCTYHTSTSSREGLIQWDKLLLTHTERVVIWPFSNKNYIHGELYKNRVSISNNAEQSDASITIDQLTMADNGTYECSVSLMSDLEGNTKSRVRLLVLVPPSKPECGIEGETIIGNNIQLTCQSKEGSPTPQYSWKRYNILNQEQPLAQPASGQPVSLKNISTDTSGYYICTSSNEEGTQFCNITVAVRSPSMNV

T2: gpA33 on human cancer cells (human, UniProt Q99795 22-319)
T2 sequence (looked up): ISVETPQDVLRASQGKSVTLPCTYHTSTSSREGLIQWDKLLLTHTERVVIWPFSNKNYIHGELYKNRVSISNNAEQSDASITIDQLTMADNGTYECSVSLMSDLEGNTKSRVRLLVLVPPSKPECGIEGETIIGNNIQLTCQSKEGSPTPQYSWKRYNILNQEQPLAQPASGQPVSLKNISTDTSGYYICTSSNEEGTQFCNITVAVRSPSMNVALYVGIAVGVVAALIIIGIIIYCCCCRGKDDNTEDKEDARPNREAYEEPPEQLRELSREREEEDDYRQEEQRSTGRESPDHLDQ


What was measured:
human gpA33 = molecular target: T1, human gpA33; experiment: simultaneous-binding assay; group statement
[1] = molecular target: T2, gpA33 on human cancer cells; experiment: cell-based or functional assay
soluble CD3 fragment = molecular target: T3, soluble CD3 fragment (Homo sapiens (Human), UniProt P07766 23-127; P04234 22-101); experiment: sandwich plate assay titled 'shCD3 capture/gpA33 detection': soluble CD3 immobilized, diabody titrated, bound diabody detected with gpA33; the signal needs binding to both CD3 and gpA33
T3 construct: copies: 1 + 1
Procedure: The detection of binding was assessed by the capacity of immobilized antibodies to additionally bind gpA33.

T3 sequence (P07766 other isoform, or with tags, fused parts or gaps limits assumed): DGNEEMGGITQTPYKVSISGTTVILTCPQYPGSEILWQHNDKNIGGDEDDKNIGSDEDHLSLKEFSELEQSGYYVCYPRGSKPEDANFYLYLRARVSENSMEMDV

| Binder | binding result (human gpA33) | EC50 of redirected killing, ASPC-1 cells, E:T 10:1 [1] | EC50 of redirected killing, Colo205 cells, E:T 10:1 [1] | EC50 of redirected killing, Colon CSLC cells, human PBMC E:T 25:1 [1] | EC50 (read off the curve) (soluble CD3 fragment) |
| --- | --- | --- | --- | --- | --- |
| gpA33 × CD3 bi-specific monovalent diabody having an IgG Fc Domain version 2 (DART-2 w/Fc Version 2) (bispecific antibody) chain 1: DKTHTCPPCPAPEAAGGPSVFLFPPKPKDTLMISRTPEVTCVVVDVSHEDPEVKFNWYVDGVEVHNAKTKPREEQYNSTYRVVSVLTVLHQDWLNGKEYKCKVSNKALPAPIEKTISKAKGQPREPQVYTLPPSREEMTKNQVSLWCLVKGFYPSDIAVEWESNGQPENNYKTTPPVLDSDGSFFLYSKLTVDKSRWQQGNVFSCSVMHEALHNHYTQKSLSLSPGKAPSSSPMEDIQLTQSPSFLSASVGDRVTITCSARSSISFMYWYQQKPGKAPKLLIYDTSNLASGVPSRFSGSGSGTEFTLTISSLEAEDAATYYCQQWSSYPLTFGQGTKLEIKGGGSGGGGEVQLVESGGGLVQPGGSLRLSCAASGFTFSTYAMNWVRQAPGKGLEWVGRIRSKYNNYATYYADSVKDRFTISRDDSKNSLYLQMNSLKTEDTAVYYCVRHGNFGNSYVSWFAYWGQGTLVTVSSGGCGGGKVAALKEKVAALKEKVAALKEKVAALKE chain 2: QAVVTQEPSLTVSPGGTVTLTCRSSTGAVTTSNYANWVQQKPGQAPRGLIGGTNKRAPWTPARFSGSLLGGKAALTITGAQAEDEADYYCALWYSNLWVFGGGTKLTVLGGGGSGGGGQVQLVQSGAEVKKPGASVKVSCKASGYTFTGSWMNWVRQAPGQGLEWIGRIYPGDGETNYNGKFKDRVTITADKSTSTAYMELSSLRSEDTAVYYCARIYGNNVYFDVWGQGTTVTVSSGGCGGGEVAALEKEVAALEKEVAALEKEVAALEK chain 3: not shown | binds | – | – | – | – |
| gpA33 × CD3 bi-specific monovalent diabody (DART-1) (bispecific antibody, Disulfide-bonded heterodimer with murine anti-gpA33 variable domains; also called gpA33 × CD3 DART 1) chain 1: QAVVTQEPSLTVSPGGTVTLTCRSSTGAVTTSNYANWVQQKPGQAPRGLIGGTNKRAPWTPARFSGSLLGGKAALTITGAQAEDEADYYCALWYSNLWVFGGGTKLTVLGGGGSGGGGQVQLQQSGPELVKPGASVKISCKASGYTFSGSWMNWVKQRPGQGLEWIGRIYPGDGETNYNGKFKDKATLTADKSSTTAYMELSSLTSVDSAVYFCARIYGNNVYFDVWGAGTTVTVSSGGCGGGEVAALEKEVAALEKEVAALEKEVAALEK chain 2: QIVLTQSPAIMSASPGERVTMTCSARSSISFMYWYQQKPGSSPRLLIYDTSNLASGVPVRFSGSGSGTSYSLTISRMEAEDAATYYCQQWSSYPLTFGSGTKLELKRGGGSGGGGEVQLVESGGGLVQPGGSLRLSCAASGFTFNTYAMNWVRQAPGKGLEWVARIRSKYNNYATYYADSVKDRFTISRDDSKNSLYLQMNSLKTEDTAVYYCVRHGNFGNSYVSWFAYWGQGTLVTVSSGGCGGGKVAALKEKVAALKEKVAALKEKVAALKE | – | 1.14 ng/mL | 0.585 ng/mL | 0.901 ng/mL | ~200 ng/mL |
